For assay [1], the target named is T1, FcγRIIb (human, UniProt P31994 43-217, limits assumed).
T1 construct: also called CD32b
T1 sequence (looked up): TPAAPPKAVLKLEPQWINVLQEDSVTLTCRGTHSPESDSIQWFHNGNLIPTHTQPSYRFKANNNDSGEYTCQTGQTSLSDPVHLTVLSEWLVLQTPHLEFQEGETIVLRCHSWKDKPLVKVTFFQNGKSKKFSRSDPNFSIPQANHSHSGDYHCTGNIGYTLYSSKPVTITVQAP
In words: SPR (Biacore), 9547 captured on protein A, receptor concentration series, 1:1 Langmuir global fit.
Method: (§1) Binding measurements were performed using a Biacore® 3000 instrument (Biacore®). Antibodies were captured onto an immobilized Protein A (Pierce) CM5 biosensor chip (Biacore®), generated using a standard primary amine coupling protocol. All measurements were performed in HBS-EP (0.01 M HEPES pH 7.4, 0.15 M NaCl, 3 mM EDTA, 0.005% v/v surfactant P20), and glycine buffer (10 mM glycine-HCl, pH 1.5) was used for the Protein A surface regeneration. All antibodies (50 nM in HBS-EP) were immobilized on the Protein A surface. Fc receptors were injected over antibody bound surface, followed by a dissociation phase. After each cycle, the Protein A surface was regenerated by injecting glycine buffer (pH 1.5). Data were processed by zeroing time and response before the injection of receptor and by subtracting appropriate nonspecific signals (response of reference channel and injection of running buffer).

The target of assay [2] is T1, FcγRIIb. In words: SPR (Biacore); the reference value of native IgG1 (2.3 µM) is cited from the literature.
Assay [3] concerns the target T2, HM1.24 antigen on a Biacore chip (UniProt Q10589 49-161, limits assumed).
T2 construct: also called HM1.24 chip
T2 sequence (looked up): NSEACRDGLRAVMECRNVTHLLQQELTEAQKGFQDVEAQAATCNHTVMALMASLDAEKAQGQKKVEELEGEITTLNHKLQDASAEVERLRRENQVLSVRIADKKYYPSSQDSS
In words: SPR (Biacore), 100 nM mAb-Fv injected over a HM1.24 chip. (Surface plasmon resonance follows binding to a sensor surface in real time, without labels.)

The target in assay [4] is T3, FcγRIIIa, V158 isoform (human, UniProt P08637 17-208, limits assumed).
T3 construct: no change against a named entry is printed; also called FcγRIIIa(158V); V158 FcγRIIIa
In words: SPR (Biacore); the reference value of native IgG1 (280 nM) is cited from the literature.
Method: Affinity of the mAb-Fv for FcγRIIIa was measured using Biacore®. The protein A capture format was used as described above, except that sensorgrams were obtained for a concentration series of receptor analyte in order to calculate an accurate affinity. […] Data were processed by zeroing time and response before the injection of receptor and by subtracting appropriate nonspecific signals (response of reference channel and injection of running buffer). The equilibrium constant was calculated by global fitting of binding data with a 1:1 Langmuir binding model using BIAevaluation software.
Similar binding experiments were carried out for the αHM1.24×αFcγRIIIa mAb-Fv. […] Data were processed by zeroing time and response before the injection of receptor and by subtracting appropriate nonspecific signals. The equilibrium constant was calculated by global fitting of binding data with a 1:1 Langmuir binding model using BIAevaluation software.

Assay [5] deals with T3, FcγRIIIa, V158 isoform. In words: SPR (Biacore), 9518 captured (protein A by the text, HM1.24 by the legend of FIG. 16), receptor concentration series, 1:1 Langmuir global fit.
Method: as §1
Data were processed by zeroing time and response before the injection of receptor and by subtracting appropriate nonspecific signals. The equilibrium constant was calculated by global fitting of binding data with a 1:1 Langmuir binding model using BIAevaluation software.

T3 sequence (P08637 17-208 F176V limits assumed): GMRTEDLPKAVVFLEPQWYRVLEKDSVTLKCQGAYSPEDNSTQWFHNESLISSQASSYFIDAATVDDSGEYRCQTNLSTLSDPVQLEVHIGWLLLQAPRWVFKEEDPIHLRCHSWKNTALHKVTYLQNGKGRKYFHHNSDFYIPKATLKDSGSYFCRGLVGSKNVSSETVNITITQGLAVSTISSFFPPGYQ

B1: 9547 αCD19×αFcγRIIb mAb-Fv (bispecific antibody, IgG1)
heavy 1: EVQLVESGGGLVKPGGSLKLSCAASGYTFTSYVMHWVRQAPGKGLEWIGYINPYNDGTKYNEKFQGRVTISSDKSISTAYMELSSLRSEDTAMYYCARGTYYYGTRVFDYWGQGTLVTVSSASTKGPSVFPLAPSSKSTSGGTAALGCLVKDYFPEPVTVSWNSGALTSGVHTFPAVLQSSGLYSLSSVVTVPSSSLGTQTYICNVNHKPSNTKVDKKVEPKSCDKTHTCPPCPAPELLRGPSVFLFPPKPKDTLMISRTPEVTCVVVDVSHEDPEVKFNWYVDGVEVHNAKTKPREEQYNSTYRVVSVLTVLHQDWLNGKEYKCKVSNKARPAPIEKTISKAKGQPREPQVTTLPPSREEMTKNQVSLTCLVKGFYPSDIAVEWESNGQPENNYKTFPPVLDSDGSFFLYSKLTVDKSRWQQGNVFSCSVMHEALHNHYTQKSLSLSPGKGGGGSGGGGSGGGGSGGGGSGGGGSGGGGQVQLQQPVTELVRPGASVMLSCKASDYPFTNYWIHWVKQRPGQGLEWIGVIDPSDTYPNYNKKFKGKATLTVVVSSSTAYMQLSSLTSDDSAVYYCARNGDSDYYSGMDYWGQGTSVTVSSGSHHHHHH
heavy 2: EVQLVESGGGLVKPGGSLKLSCAASGYTFTSYVMHWVRQAPGKGLEWIGYINPYNDGTKYNEKFQGRVTISSDKSISTAYMELSSLRSEDTAMYYCARGTYYYGTRVFDYWGQGTLVTVSSASTKGPSVFPLAPSSKSTSGGTAALGCLVKDYFPEPVTVSWNSGALTSGVHTFPAVLQSSGLYSLSSVVTVPSSSLGTQTYICNVNHKPSNTKVDKKVEPKSCDKTHTCPPCPAPELLRGPSVFLFPPKPKDTLMISRTPEVTCVVVDVSHEDPEVKFNWYVDGVEVHNAKTKPREEQYNSTYRVVSVLTVLHQDWLNGKEYKCKVSNKARPAPIEKTISKAKGQPREPQVYTLPPSREEMTKNQVHLTCLVKGFYPSDIAVEWESNGQPENNYKTTPPVLDSDGSFALYSKLTVDKSRWQQGNVFSCSVMHEALHNHYTQKSLSLSPGKGGGGSGGGGSGGGGSGGGGSGGGGSGGGGDILLTQSPAILSVSPGERVSFSCRTSQSIGTNIHWYQQRTNGFPRLLIKNVSESISGIPSRFSGSGSGTDFILSINSVESEDIADYYCQQSNTWPFTFGGGTKLEIKGSHHHHHH
light: DIVMTQSPATLSLSPGERATLSCRSSKSLQNVNGNTYLYWFQQKPGQSPQLLIYRMSNLNSGVPDRFSGSGSGTEFTLTISSLEPEDFAVYYCMQHLEYPITFGAGTKLEIKRTVAAPSVFIFPPSDEQLKSGTASVVCLLNNFYPREAKVQWKVDNALQSGNSQESVTEQDSKDSTYSLSSTLTLSKADYEKHKVYACEVTHQGLSSPVTKSFNRGEC
notes: mAb-Fv, IgG1 G236R/L328R, hetero-Fc TF-HA, Linker 3; also called 9547 mAb-Fv; copies: 1 + 1 + 2
One may read the Kd as the equilibrium constant for the complex coming apart. Read a low Kd as a tighter complex. As to B1, the affinity with FcγRIIb [1], expressed as Kd, was 44 nM. In addition, in the assay with FcγRIIb [2], the “fold tighter than native IgG1” value is ~52 fold.

B2: 9518 αHM1.24×αFcγRIIIa mAb-Fv (bispecific antibody, IgG1)
heavy 1: QVQLVQSGAEVKKPGASVKVSCKASGYTFTPYWMQWVRQAPGQGLEWMGSIFPGSGDTRYSQSFQGQVTISADKSISTAYMELSRLRSDDTAVYYCARGLRRGGYYFDYWGQGTLVTVSSASTKGPSVFPLAPSSKSTSGGTAALGCLVKDYFPEPVTVSWNSGALTSGVHTFPAVLQSSGLYSLSSVVTVPSSSLGTQTYICNVNHKPSNTKVDKKVEPKSCDKTHTCPPCPAPELLRGPSVFLFPPKPKDTLMISRTPEVTCVVVDVSHEDPEVKFNWYVDGVEVHNAKTKPREEQYNSTYRVVSVLTVLHQDWLNGKEYKCKVSNKARPAPIEKTISKAKGQPREPQVTTLPPSREEMTKNQVSLTCLVKGFYPSDIAVEWESNGQPENNYKTFPPVLDSDGSFFLYSKLTVDKSRWQQGNVFSCSVMHEALHNHYTQKSLSLSPGKSSDKTHTSPPSPGGGGSGGGGSGGGGSGGGGQVTLKESGPGILQPSQTLSLTCSFSGFSLRTSGMGVGWIRQPSGKGLEWLAHIWWDDDKRYNPALKSRLTISKDTSSNQVFLKIASVDTADTATYYCAQINPAWFAYWGQGTLVTVSASGHHHHHH
heavy 2: QVQLVQSGAEVKKPGASVKVSCKASGYTFTPYWMQWVRQAPGQGLEWMGSIFPGSGDTRYSQSFQGQVTISADKSISTAYMELSRLRSDDTAVYYCARGLRRGGYYFDYWGQGTLVTVSSASTKGPSVFPLAPSSKSTSGGTAALGCLVKDYFPEPVTVSWNSGALTSGVHTFPAVLQSSGLYSLSSVVTVPSSSLGTQTYICNVNHKPSNTKVDKKVEPKSCDKTHTCPPCPAPELLRGPSVFLFPPKPKDTLMISRTPEVTCVVVDVSHEDPEVKFNWYVDGVEVHNAKTKPREEQYNSTYRVVSVLTVLHQDWLNGKEYKCKVSNKARPAPIEKTISKAKGQPREPQVYTLPPSREEMTKNQVHLTCLVKGFYPSDIAVEWESNGQPENNYKTTPPVLDSDGSFALYSKLTVDKSRWQQGNVFSCSVMHEALHNHYTQKSLSLSPGKSSDKTHTSPPSPGGGGSGGGGSGGGGSGGGGDIVLTQSPASLAVSLGQRATISCKASQSVDFDGDSFMNWYQQKPGQPPKLLIYTTSNLESGIPARFSASGSGTDFTLNIHPVEEEDTATYYCQQSNEDPYTFGGGTKLELKSGDYKDDDDK
light: DIVMTQSPLSLPVTLGQPASISCKASQDVNTAVAWYLQKPGKSPKLLIYSASNRYTGVPDRITGSGSGTDFTLKISRVEAEDVGVYYCQQHYSTPFTFGSGTKLEIKRTVAAPSVFIFPPSDEQLKSGTASVVCLLNNFYPREAKVQWKVDNALQSGNSQESVTEQDSKDSTYSLSSTLTLSKADYEKHKVYACEVTHQGLSSPVTKSFNRGEC
notes: mAb-Fv, IgG1 G236R/L328R, hetero-Fc TF-HA, Linker 2; copies: 1 + 1 + 2
Turning to B2, the binding result in assay [3] is recorded as “binds”. Moreover, the “fold tighter than native IgG1” value with FcγRIIIa, V158 isoform [4] is ~2.9 fold. In the assay with FcγRIIIa, V158 isoform [5], the Kd amounted to 96 nM.

The values above are taken from patent US20170058053A1 (Xencor, published 2017).
